Measurements published in article PMC7291361 (ACS infectious diseases, 2020).

Target: H1 SI-06 HA FLsE (Influenza A virus A/Solomon …, UniProt A7UPX0, strain)
Experiment: ELISA

B1: K03.12 IgG (antibody, V domains shown)
VH: QVQLVQSGAEVKKPGASVKVSCKTSGYTFTAYYLHWVRQAPGQGFEWMAWINPNTGDTNYAQKFQGRVTLSRDTSITTAYMELTRLRSDDTAVYYCAKDLTLMYVFDSGWARGAHDYYGMDVWGQGTTVAVSG
VL: PSALTQPASVSGSPGQSVTISCTGTNSDVGTFDLVSWYQQYPGKAPKLIIYEGSRRPSGVSDRFSGSKSGNTASLTISGLQAEDEADYYCSSYAGSVVFGGGTKLTVL
binding result: binds
